# Experimental data reported in publication PMC3744072.
# Biological target: matrilin-3 (wild type, mouse) (mouse (endogenous in mouse cartilage and chondrocytes)) (UniProt O35701)
# Assay: non-reducing SDS-PAGE and Western blot; total protein lysates of isolated chondrocytes of 5-day-old mice, 4-12% gels, non-reduced against reduced (0.1 M DTT); oligomers assigned by apparent size
# Sequence of matrilin-3 (wild type, mouse) (O35701 28-481): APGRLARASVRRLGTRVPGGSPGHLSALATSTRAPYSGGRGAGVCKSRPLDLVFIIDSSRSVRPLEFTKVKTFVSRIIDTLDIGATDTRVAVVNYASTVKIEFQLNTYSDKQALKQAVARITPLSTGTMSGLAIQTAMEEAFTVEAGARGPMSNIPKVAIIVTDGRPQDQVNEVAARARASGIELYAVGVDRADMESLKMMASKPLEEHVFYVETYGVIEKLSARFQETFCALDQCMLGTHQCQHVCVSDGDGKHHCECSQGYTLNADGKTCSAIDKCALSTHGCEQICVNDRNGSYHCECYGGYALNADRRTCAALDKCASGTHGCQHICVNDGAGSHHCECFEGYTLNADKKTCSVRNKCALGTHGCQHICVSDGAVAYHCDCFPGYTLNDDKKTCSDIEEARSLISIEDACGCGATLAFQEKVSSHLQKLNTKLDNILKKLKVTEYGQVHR
substance,measurement,value
"matrilin-3 (wild type, mouse) (from UniProt O35701 28-481) (natural protein)",stoichiometry N,4
